Measured values as given in publication PMC11374677 (Nature, 2024).

Biological target: SARS-CoV-2 non-structural protein 3 (nsp3), TwinStrep-EGFP tagged, wild type (SARS-CoV-2 (Wuhan-Hu-1), UniProt P0DTD1)
Assay: […]

B1: SARS-CoV-2 non-structural protein 4 (nsp4), wild type (natural protein)
chain: KIVNNWLKQLIKVTLVFLFVAAIFYLITPVHVMSKHTDFSSEIIGYKAIDGGVTRDIASTDTCFANKHADFDTWFSQRGGSYTNDKACPLIAAVITREVGFVVPGLPGTILRTTNGDFLHFLPRVFSAVGNICYTPSKLIEYTDFATSACVLAAECTIFKDASGKPVPYCYDTNVLEGSVAYESLRPDTRYVLMDGSIIQFPNTYLEGSVRVVTTFDSEYCRHGTCERSEAGVCVSTSGRWVLNNDYYRSLPGVFCGVDAVNLLTNMFTPLIQPIGALDISASIVAGGIVAIVVTCLAYYFMRFRRAFGEYSHVVAFNTLLFLMSFTVLCLTPVYSFLPGVYSVIYLYLTFYLTNDVSFLAHIQWMVMFTPLVPFWITIAYIICISTKHFYWFFSNYLKRRVVFNGVSFSTFEEAALCTFLLNKEMYLKLRSDVLLPLTQYNRYLALYNKYKYFSGAMDTTSYREAACCHLAKALNDFSNSGSDVLYQPPQTSITSAVLQ
  stoichiometry N: 1 ratio nsp4:nsp3 (12:12 in the complex)
